Laboratory results as given in US8663616B2, “Enzymatic peracid generation for use in oral care products” (E I du Pont de Nemours and Company, priority 2010, dated 2014).

What was measured:
[1] = Peracetic acid generated in solution by C277S CXH fusions (Example 9); details: 0.5 μM enzyme, sarkosyl buffer, 100 mM triacetin, 100 mM H2O2, pH 7.2, 10 min, 37° C.
[2] = Peracetic acid from C277S CXH fusions exposed to hydroxyapatite discs (Example 9); details: no enzyme control subtracted; for Peracetic acid (ppm) Exposed to Hydroxyapatite, Disc: disc-bound enzyme, 100 mM triacetin, 100 mM H2O2, 30 min, 37° C.; for Peracetic acid (ppm) Exposed to Hydroxyapatite, Supernatant: unbound enzyme in supernatant after 10 μM enzyme on disc

Molecule | Peracetic acid (ppm) In Solution [1] [ppm] | Peracetic acid (ppm) Exposed to Hydroxyapatite, Disc [2] [ppm] | Peracetic acid (ppm) Exposed to Hydroxyapatite, Supernatant [2] [ppm]
EZ-22: C277S-EPEPEPEPEPE-Link1-CXHG2-H6, SEQ ID NO: 446 (protein) MAFFDLPLEELKKYRPERYEEKDFDEFWEETLAESEKFPLDPVFERMESHLKTVEAYDVTFSGYRGQRIKGWLLVPKLEEEKLPCVVQYIGYNGGRGFPHDWLFWPSMGYICFVMDTRGQGSGWLKGDTPDYPEGPVDPQYPGFMTRGILDPRTYYYRRVFTDAVRAVEAAASFPQVDQERIVIAGGSQGGGIALAVSALSKKAKALLCDVPFLCHFRRAVQLVDTHPYAEITNFLKTHRDKEEIVFRTLSYFDGVNFAARAKIPALFSVGLMDNISPPSTVFAAYNYYAGPKEIRIYPYNNHEGGGSFQAVEQVKFLKKLFEKGEPEPEPEPEPEGPGSGGAGSPGSAGGPGSPLWRRITKRKLVRPVATLMWYWFTSKRHHHHHH | 2305 | 2495 | 477
EZ-20: C277S-EPEPEPEPEPE-link1-CXH201-H6, SEQ ID NO: 444 (protein) MAFFDLPLEELKKYRPERYEEKDFDEFWEETLAESEKFPLDPVFERMESHLKTVEAYDVTFSGYRGQRIKGWLLVPKLEEEKLPCVVQYIGYNGGRGFPHDWLFWPSMGYICFVMDTRGQGSGWLKGDTPDYPEGPVDPQYPGFMTRGILDPRTYYYRRVFTDAVRAVEAAASFPQVDQERIVIAGGSQGGGIALAVSALSKKAKALLCDVPFLCHFRRAVQLVDTHPYAEITNFLKTHRDKEEIVFRTLSYFDGVNFAARAKIPALFSVGLMDNISPPSTVFAAYNYYAGPKEIRIYPYNNHEGGGSFQAVEQVKFLKKLFEKGEPEPEPEPEPEGPGSGGAGSPGSAGGPGSWKTKKILLSRTRRIMRQVVRSVMHKIWHHHHHH | 2265 | 2795 | 1229
EZ-21: C277S-EPEPE-link1-EPEPE-CXHG2-H6, SEQ ID NO: 445 (protein) MAFFDLPLEELKKYRPERYEEKDFDEFWEETLAESEKFPLDPVFERMESHLKTVEAYDVTFSGYRGQRIKGWLLVPKLEEEKLPCVVQYIGYNGGRGFPHDWLFWPSMGYICFVMDTRGQGSGWLKGDTPDYPEGPVDPQYPGFMTRGILDPRTYYYRRVFTDAVRAVEAAASFPQVDQERIVIAGGSQGGGIALAVSALSKKAKALLCDVPFLCHFRRAVQLVDTHPYAEITNFLKTHRDKEEIVFRTLSYFDGVNFAARAKIPALFSVGLMDNISPPSTVFAAYNYYAGPKEIRIYPYNNHEGGGSFQAVEQVKFLKKLFEKGEPEPEGPGSGGAGSPGSAGGPGSEPEPEPLWRRITKRKLVRPVATLMWYWFTSKRHHHHHH | 2764 | 3109 | 1581
EZ-19: C277S-EPEPE-link1-EPEPE-CXH201-H6, SEQ ID NO: 443 (protein) MAFFDLPLEELKKYRPERYEEKDFDEFWEETLAESEKFPLDPVFERMESHLKTVEAYDVTFSGYRGQRIKGWLLVPKLEEEKLPCVVQYIGYNGGRGFPHDWLFWPSMGYICFVMDTRGQGSGWLKGDTPDYPEGPVDPQYPGFMTRGILDPRTYYYRRVFTDAVRAVEAAASFPQVDQERIVIAGGSQGGGIALAVSALSKKAKALLCDVPFLCHFRRAVQLVDTHPYAEITNFLKTHRDKEEIVFRTLSYFDGVNFAARAKIPALFSVGLMDNISPPSTVFAAYNYYAGPKEIRIYPYNNHEGGGSFQAVEQVKFLKKLFEKGEPEPEGPGSGGAGSPGSAGGPGSEPEPEWKTKKILLSRTRRIMRQVVRSVMHKIWHHHHHH | 4088 | 3136 | 1665
